Source: the supplement of paper PMC10126150
± gives the standard deviation of the averaged measurements.

Tested on: ATP
Experiment: switch fluorescence ratio, 500 uM ATP over buffer (Cy3 cluster intensity, sum of 5 cycles each) (fold (ratio)); higher = stronger signal-on switching upon ATP binding; sequences stand for … in TCGTCGGCAGCGTCAGATGTGTATAAGAGACAGTTTTTTTTTTTTTTTTTTTTTTTTT…TC
Details: aptamer strand: ATP DNA aptamer (quencher-CACCTGGGGGAGTATTGCGGAGGAAGG + anchor), 100 nM annealed; ATP concentration: 500 uM
In short: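 Clusters with intensities outside 100-1000 RFU were excluded. The remaining Cy3-labelled switching-strand clusters on a modified Illumina MiSeq flow-cell had been annealed to 100 nM quencher-labelled ATP aptamer and imaged in selection buffer, then after 15 min with 500 uM ATP at 22 °C, for five cycles separated by NaOH stripping and re-annealing. The fluorescence ratio, averaged per switch-domain sequence, is each cluster's summed target-cycle Cy3 intensity over its summed buffer-cycle Cy3 intensity.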
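Further: ATP exposure 15 min at 22 °C before imaging.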

| Sequence | switch fluorescence ratio |
| --- | --- |
| ATTTTAATGG | 0.9907 ± 0.0036 |
| ATTTTAATTG | 1.02 ± 0.016 |
| ATTTTAGATG | 1 ± 0.025 |
| ATTTTAGGGA | 0.98918 ± 0.00041 |
| ATTTTAGGGG | 0.983 ± 0.035 |
| ATTTTAGTTT | 1 ± 0.016 |
| ATTTTATCTC | 1.22 ± 0.27 |
| ATTTTCGGTT | 0.997 ± 0.034 |
| ATTTTCGTTT | 0.945 ± 0.024 |
| ATTTTGAAAG | 1.01 ± 0.022 |
| ATTTTGATAC | 1.01 ± 0.044 |
| ATTTTGATAT | 1.01 ± 0.018 |
| ATTTTGATGT | 0.995 ± 0.051 |
| ATTTTGCGTT | 0.998 ± 0.031 |
| ATTTTGGGGC | 1.03 ± 0.018 |
| ATTTTGGTAT | 1.01 ± 0.027 |
| ATTTTGGTGA | 1 ± 0.035 |
| ATTTTGTGGG | 1 ± 0.023 |
| ATTTTTAAAC | 0.992 ± 0.066 |
| ATTTTTAAGG | 0.995 ± 0.021 |
| ATTTTTAATC | 1.06 ± 0.14 |
| ATTTTTAGAC | 1.03 ± 0.022 |
| ATTTTTATAC | 1.02 ± 0.021 |

| Sequence | switch fluorescence ratio |
| --- | --- |
| ATTTTTCTAT | 0.987 ± 0.027 |
| ATTTTTCTGA | 1 ± 0.019 |
| ATTTTTGCGT | 1.01 ± 0.041 |
| ATTTTTGCTT | 0.994 ± 0.019 |
| ATTTTTGGAG | 0.9792 ± 0.0053 |
| ATTTTTGGCC | 1.02 ± 0.035 |
| ATTTTTGTCT | 0.983 ± 0.06 |
| ATTTTTGTTT | 0.985 ± 0.023 |
| ATTTTTTAAA | 0.994 ± 0.027 |
| ATTTTTTAGT | 0.983 ± 0.013 |
| ATTTTTTGGA | 1.01 ± 0.026 |
| ATTTTTTGTG | 0.9732 ± 0.0082 |
| ATTTTTTTCC | 1.38 ± 0.57 |
| ATTTTTTTTG | 0.987 ± 0.023 |
| ATTTTTTTTT | 1 ± 0.026 |
| CAAAAAGGCG | 1.03 ± 0.054 |
| CAAAAAGTAG | 1.014 ± 0.0062 |
| CAAAACAGGT | 1.01 ± 0.032 |
| CAAAAGGAAA | 0.992 ± 0.022 |
| CAAAATAAGA | 1.01 ± 0.017 |
| CAAAATACGG | 1.07 ± 0.052 |
| CAAACATTTT | 0.9795 ± 0.0044 |
| CAAACTCCCA | 1.16 ± 0.18 |

| Sequence | switch fluorescence ratio |
| --- | --- |
| CAAAGCTATT | 1.008 ± 0.006 |
| CAAAGCTTGA | 1.01 ± 0.036 |
| CAAAGGGAAA | 1.02 ± 0.033 |
| CAAAGGGCGG | 0.9985 ± 0.0012 |
| CAAAGGTTAG | 1.0209 ± 0.001 |
| CAAAGTACAA | 1.17 ± 0.02 |
| CAAAGTGTGG | 0.989 ± 0.054 |
| CAAAGTTGGT | 0.994 ± 0.05 |
| CAAATAAACC | 1.03 ± 0.018 |
| CAAATAACGT | 0.9893 ± 0.0097 |
| CAAATAGATG | 1 ± 0.029 |
| CAAATCCTAT | 1.01 ± 0.013 |
| CAAATGGTCT | 1 ± 0.013 |
| CAAATTGGGT | 0.996 ± 0.04 |
| CAAATTTGAT | 1.03 ± 0.027 |
| CAAATTTGGG | 1.02 ± 0.014 |
| CAAATTTGTC | 0.994 ± 0.02 |
| CAACAACTTC | 1.01 ± 0.0034 |
| CAACAGGGGT | 1.14 ± 0.23 |
| CAACATGTTT | 1.02 ± 0.03 |
| CAACCGCCTT | 1.46 ± 0.12 |
| CAACCTGAAC | 2.39 ± 0.2 |
| CAACGAGTGG | 1.012 ± 0.0028 |

| Sequence | switch fluorescence ratio |
| --- | --- |
| CAACGGGGGT | 1.03 ± 0.018 |
| CAACGTAGGT | 1.05 ± 0.013 |
| CAAGAAAAGT | 0.978 ± 0.048 |
| CAAGAGGGTC | 1.04 ± 0.067 |
| CAAGAGTATT | 0.995 ± 0.022 |
| CAAGAGTGC | 1.025 ± 0.0091 |
| CAAGATCGGC | 1.01 ± 0.079 |
| CAAGATGGGA | 0.963 ± 0.082 |
| CAAGATGTTG | 0.987 ± 0.047 |
| CAAGCCGGGG | 0.979 ± 0.021 |
| CAAGCGTGCG | 0.98 ± 0.012 |
| CAAGGAAGGA | 0.9967 ± 0.005 |
| CAAGGAGTCT | 1.02 ± 0.035 |
| CAAGGATACA | 1 ± 0.034 |
| CAAGGATTTA | 1.02 ± 0.044 |
| CAAGGGAGGG | 0.991 ± 0.047 |
| CAAGGGGCAC | 1.02 ± 0.02 |
| CAAGGGGGCC | 1.14 ± 0.18 |
| CAAGGGGTAA | 0.9524 ± 0.0052 |
| CAAGGGGTGG | 0.996 ± 0.019 |
| CAAGGGTGGT | 1.03 ± 0.023 |
| CAAGGGTGTG | 0.988 ± 0.012 |
| CAAGTCTAGA | 0.995 ± 0.026 |

| Sequence | switch fluorescence ratio |
| --- | --- |
| CAAGTGAAGC | 0.9539 ± 0.005 |
| CAAGTGAGAA | 1.02 ± 0.049 |
| CAAGTGATAT | 1.05 ± 0.014 |
| CAAGTGCTGT | 0.98 ± 0.033 |
| CAAGTGTGAG | 0.985 ± 0.013 |
| CAAGTTCAAA | 1.013 ± 0.0055 |
| CAAGTTGACC | 1.01 ± 0.046 |
| CAAGTTGGCT | 0.987 ± 0.039 |
| CAAGTTGTTA | 0.964 ± 0.029 |
| CAATAGACGG | 1.04 ± 0.046 |
| CAATAGCACG | 1.03 ± 0.027 |
| CAATAGGGGA | 1.01 ± 0.017 |
| CAATATGTTT | 0.991 ± 0.051 |
| CAATATTAGT | 0.996 ± 0.024 |
| CAATCTGGGA | 0.978 ± 0.019 |
| CAATCTTTAA | 1.02 ± 0.034 |
| CAATGCGTAT | 1.01 ± 0.07 |
| CAATGGAGAG | 1 ± 0.018 |
| CAATGGAGGC | 0.976 ± 0.072 |
| CAATGGAGGG | 0.992 ± 0.033 |
| CAATGGCCTC | 1 ± 0.047 |
| CAATGGGGGC | 1.02 ± 0.045 |
| CAATGGTTAG | 0.998 ± 0.026 |

| Sequence | switch fluorescence ratio |
| --- | --- |
| CAATGTAGGG | 1.004 ± 0.0077 |
| CAATGTAGGT | 1.02 ± 0.02 |
| CAATTACGCA | 1.186 ± 0.00065 |
| CAATTAGCAT | 1.03 ± 0.017 |
| CAATTAGGTC | 0.994 ± 0.024 |
| CAATTATATG | 0.9961 ± 0.0071 |
| CAATTATGTA | 0.963 ± 0.016 |
| CAATTCATGG | 0.992 ± 0.073 |
| CAATTGCAGG | 1.01 ± 0.014 |
| CAATTGGGGT | 1.03 ± 0.06 |
| CACAAACCAG | 1.34 ± 0.37 |
| CACAATATGT | 1.07 ± 0.078 |
| CACAATCGGG | 1.005 ± 0.0088 |
| CACACGTACA | 1.769 ± 0.01 |
| CACACGTGGT | 0.9908 ± 0.0036 |
| CACAGAGGGG | 1.02 ± 0.028 |
| CACAGCAGCG | 1.048 ± 0.0029 |
| CACAGCTAAA | 1.09 ± 0.018 |
| CACAGGCCAA | 1.2 ± 0.029 |
| CACAGGGAGT | 1.03 ± 0.021 |
| CACATGCTCG | 1.05 ± 0.076 |
| CACATGCTGT | 0.995 ± 0.038 |
| CACATGTGCC | 1.01 ± 0.021 |

| Sequence | switch fluorescence ratio |
| --- | --- |
| CACATTTTTG | 0.995 ± 0.023 |
| CACCATCTTG | 0.987 ± 0.019 |
| CACCCCGGTT | 1.12 ± 0.051 |
| CACCCGGGCA | 1.07 ± 0.06 |
| CACCCTTTTC | 1.02 ± 0.024 |
| CACCGCGTCG | 1.21 ± 0.017 |
| CACCGGCTTT | 1.1 ± 0.14 |
| CACCGGTGTT | 1.02 ± 0.032 |
| CACCGTGTGG | 1.006 ± 0.0088 |
| CACCTAATGT | 1.06 ± 0.015 |
| CACCTGTCCG | 1.06 ± 0.02 |
| CACGAAGGGT | 1.02 ± 0.018 |
| CACGACATTG | 1.02 ± 0.018 |
| CACGAGATAA | 1.11 ± 0.079 |
| CACGCAAGTG | 1.03 ± 0.018 |
| CACGCACATG | 1.5 ± 0.076 |
| CACGCGGGGG | 1.03 ± 0.015 |
| CACGGAAGCG | 1.05 ± 0.032 |
| CACGGCAGCT | 1.09 ± 0.02 |
